Data taken from US20250257128A1 (DRAGONBOAT BIOPHARMACEUTICAL SHANGHAI, published 2025).
“And” between values parts separate entries of the source, which are not always exact repeats. Identical values can stand only once.

How the values were obtained:
human CD47 [1] = molecular target: T1, human CD47 (human, UniProt Q08722 19-323); assay: flow cytometry, blocking of SIRPα-mFc binding to CD47 on NUGC-4 cells
T1 construct: whole, on cells; also called CD47 on red blood cells; endogenous CD47 on NUGC-4 cells
T1 sequence (Q08722 19-323): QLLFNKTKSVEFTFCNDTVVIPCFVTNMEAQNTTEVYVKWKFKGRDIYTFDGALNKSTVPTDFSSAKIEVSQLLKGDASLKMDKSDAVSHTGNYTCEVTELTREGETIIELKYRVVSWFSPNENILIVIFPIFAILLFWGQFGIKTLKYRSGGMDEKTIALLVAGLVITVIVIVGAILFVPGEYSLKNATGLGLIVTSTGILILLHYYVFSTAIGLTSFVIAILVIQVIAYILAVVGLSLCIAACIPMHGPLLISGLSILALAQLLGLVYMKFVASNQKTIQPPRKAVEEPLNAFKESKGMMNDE
Procedure: (§1) The specific method was as follows: 1×10⁵ NUGC-4 cells or hCLDN18.2-NUGC-4 cells were taken and centrifuged at a low speed (300 g), and the supernatant was removed. The cells at the bottom of the centrifuge tube were rinsed once with a formulated FACS buffer (1×PBS buffer containing 2% FBS). Subsequently, the serially diluted antibody to be tested was added to the rinsed cells, which were then incubated for 1 h. After the cells were rinsed twice with FACS buffer, 100 μL of 1 μg/mL SIRPα-mFc (ACRO, SIA-H52A8) was added, followed by incubation at 4° C. for 1 h. After the cells were rinsed with FACS buffer for three times, 100 μL of 1:200 diluted PE-labeled goat anti-mouse Fc (Abcam, ab98742) was added as the secondary antibody, followed by incubation at 4° C. for 1 h. After centrifugation, the supernatant was removed, the cells were resuspended by adding 200 μL of FACS buffer, and finally the amount of SIRPα-mFc binding to the cells (expressed as mean fluorescence intensity (MFI)) was measured by a flow cytometer (Beckman, CytoFLEX AOO-1-1102).

human CD47 [2] = molecular target: T1, human CD47; assay: flow cytometry, blocking of SIRPα-mFc binding to CD47 on hCLDN18.2-NUGC-4 cells
Procedure: as §1
Besides, due to the fact that the anti-CLDN18.2 single domain antibody NA3S-H1 was only bound to CLDN18.2, the antibody had no blocking effect.

human CD47 [3] = molecular target: T1, human CD47; assay: flow cytometry on human red blood cells, antibody at 150 µg/mL
Procedure: (§2) Flow cytometry was used to determine whether the bispecific antibody was bound to red blood cells. Another anti-CD47 antibody F4AM4-IgG1 (abbreviated as F4AM4 in the accompanying drawings; the amino acid sequence of the heavy chain is SEQ ID NO: 24, and the amino acid sequence of the light chain is SEQ ID NO: 25) developed by the applicant was used as a positive control antibody.
(§3) The specific method was as follows: red blood cells were isolated from 1 mL of anticoagulant human blood, and the supernatant was aspirated following centrifugation. After the cells were rinsed twice with PBS, 1 mL of PBS was added to resuspend the red blood cells. The red blood cells were diluted to 1×10⁷/mL with PBS, pipetted at 50 μL/well and added to a 96-well round bottom cell culture plate. Then an equal volume of the serially diluted antibody to be tested was added, fully mixed, and incubated at 4° C. for 1 h. After the culture was rinsed with FACS buffer for three times, 0.5 μg of PE-labeled goat anti-human IgG Fc antibody (Abcam, ab98596) was added, followed by incubation at 4° C. for 1 h. Subsequently, the cells were rinsed with FACS buffer for three times and then resuspended by adding 200 μL of FACS buffer, and finally the amount of the antibody binding to the red blood cells (expressed as mean fluorescence intensity (MFI)) was measured by a flow cytometer (Beckman, CytoFLEX AOO-1-1102).

human CD47 [4] = molecular target: T1, human CD47; assay: flow cytometry on human red blood cells, antibody at 15 µg/mL
Procedure: as §2, §3

Binder	IC50 (human CD47 [1])	IC50 (human CD47 [2])	MFI (human CD47 [3]) [MFI]	MFI (human CD47 [4]) [MFI]
anti-CD47 humanized antibody A7H3L3 (antibody, human IgG1, kappa, V domains shown, also called A7H3L3 monoclonal antibody; anti-CD47 monoclonal antibody A7H3L3) VH: QVQLVQSGAEVKKPGASVKVSCKASGFNIKDIYIYWVRQAPGQGLEWIGKIDPANGNTKYDQKFQGRATITADTSTNTAYLELSSLRSEDTAVYYCARGYGSGFAYWGQGTLVTVSS VL: DIQMTQSPSSLSASVGDRVTITCRASQDISNHLNWYQQKPGKAPKLLIYYTSRIHSGVPSSFRGSGSGTDYTLTISSLQPEDIATYFCQQGYTLPFTFGSGTKLEIKR			608	463
anti-CD47 antibody F4AM4-IgG1 (antibody, V domains shown, Positive control anti-CD47 antibody developed by the applicant) VH: QVQLVQSGAEVKKPGASVKMSCKASGYTFTSSVMHWVRQAPGQGLEWIGYINPYTDGTKYAQKFQGRATLTSDKSTSTAYMEFSSLRSEDTAVYYCGRPYYGTRYGSWFAYWGQGTLVTVSS VL: DIQMTQSPSSLSASVGDRVTITCRASQDISNYLNWYQQKPGKAPKLLIYYTSRLHSGVPSRFSGSGSGTDYTLTISNLQPEDIATYYCQQGKNYPFTFGSGTKLEIKR	0.033 µg/mL and 0.226 nM	0.056 µg/mL and 0.383 nM		
anti-CD47/anti-CLDN18.2 bispecific antibody B8 (bispecific antibody, human IgG1, kappa, IgG-like format, human IgG1 / kappa constant regions) heavy: not shown light: DIQMTQSPSSLSASVGDRVTITCRASQDISNHLNWYQQKPGKAPKLLIYYTSRIHSGVPSSFRGSGSGTDYTLTISSLQPEDIATYFCQQGYTLPFTFGSGTKLEIKRTVAAPSVFIFPPSDEQLKSGTASVVCLLNNFYPREAKVQWKVDNALQSGNSQESVTEQDSKDSTYSLSSTLTLSKADYEKHKVYACEVTHQGLSSPVTKSFNRGEC			2140	988

The remaining lines, values ahead:

IC50 (human CD47 [1])	IC50 (human CD47 [2])	MFI (human CD47 [3]) [MFI]	MFI (human CD47 [4]) [MFI]	Binder
15.4 µg/mL and 106 nM	12 µg/mL and 82.3 nM			antibody 1F8 (the 1F8 antibody in WO 2018075857 A1) (antibody, V domains shown) VH: KVQLVESGGGLVKPGGSLRLSCAASGFTFSNAWMNWVRQAPGKGLEWVGRIKRKTDGETTDYAAPVKGRFSISRDDSKNTLYLQMNSLKTEDTAVYYCAGSNRAFDIWGQGTMVTVSA VL: DIVMTQSPDSLAVSLGERATINCKSSQSVLYSSNNRNYLAWYQQKPGQPPKLLINQASTRASGVPDRFSGSGSGTEFTLIISSLHAEDVAIYYCQQYYTPPLAFGGGTKLEIK
		1220	239	anti-CD47/anti-CLDN18.2 bispecific antibody B9 (bispecific antibody, human IgG1, kappa, IgG-like format; NA3S-H1 VHH at the N-terminus of the light chain through Linker1) heavy: not shown light: QVQLVESGGGLVQPGGSLRLSCAASGSIFNIPVMGWYRQAPGKQRELVAGISTGGTTNYGDSVKGRFTISRDNAKNTVYLQMNSLKPEDTAVYYCNVLVVSGIGSTLEVWGQGTLVTVSSGGGGSGGGGSDIQMTQSPSSLSASVGDRVTITCRASQDISNHLNWYQQKPGKAPKLLIYYTSRIHSGVPSSFRGSGSGTDYTLTISSLQPEDIATYFCQQGYTLPFTFGSGTKLEIKRTVAAPSVFIFPPSDEQLKSGTASVVCLLNNFYPREAKVQWKVDNALQSGNSQESVTEQDSKDSTYSLSSTLTLSKADYEKHKVYACEVTHQGLSSPVTKSFNRGEC
		847	238	anti-CD47/anti-CLDN18.2 bispecific antibody B11 (bispecific antibody, human IgG1, kappa, IgG-like format; NA3S-H1 VHH at the N-terminus of both heavy and light chains) heavy: not shown light: QVQLVESGGGLVQPGGSLRLSCAASGSIFNIPVMGWYRQAPGKQRELVAGISTGGTTNYGDSVKGRFTISRDNAKNTVYLQMNSLKPEDTAVYYCNVLVVSGIGSTLEVWGQGTLVTVSSGGGGSGGGGSDIQMTQSPSSLSASVGDRVTITCRASQDISNHLNWYQQKPGKAPKLLIYYTSRIHSGVPSSFRGSGSGTDYTLTISSLQPEDIATYFCQQGYTLPFTFGSGTKLEIKRTVAAPSVFIFPPSDEQLKSGTASVVCLLNNFYPREAKVQWKVDNALQSGNSQESVTEQDSKDSTYSLSSTLTLSKADYEKHKVYACEVTHQGLSSPVTKSFNRGEC
	0.765 µg/mL and 4.48 nM	2490	534	anti-CD47/anti-CLDN18.2 bispecific antibody B10 (bispecific antibody, human IgG1, kappa, IgG-like format; NA3S-H1 VHH at the C-terminus of the heavy chain through Linker1) heavy: not shown light: DIQMTQSPSSLSASVGDRVTITCRASQDISNHLNWYQQKPGKAPKLLIYYTSRIHSGVPSSFRGSGSGTDYTLTISSLQPEDIATYFCQQGYTLPFTFGSGTKLEIKRTVAAPSVFIFPPSDEQLKSGTASVVCLLNNFYPREAKVQWKVDNALQSGNSQESVTEQDSKDSTYSLSSTLTLSKADYEKHKVYACEVTHQGLSSPVTKSFNRGEC
		2530	1620	anti-CD47/anti-CLDN18.2 bispecific antibody B12 (bispecific antibody, human IgG1, kappa, IgG-like format; NA3S-H1 VHH at the N-terminus of the heavy chain through Linker2 (GGGGS)) heavy: not shown light: DIQMTQSPSSLSASVGDRVTITCRASQDISNHLNWYQQKPGKAPKLLIYYTSRIHSGVPSSFRGSGSGTDYTLTISSLQPEDIATYFCQQGYTLPFTFGSGTKLEIKRTVAAPSVFIFPPSDEQLKSGTASVVCLLNNFYPREAKVQWKVDNALQSGNSQESVTEQDSKDSTYSLSSTLTLSKADYEKHKVYACEVTHQGLSSPVTKSFNRGEC
